Results from FireProtDB (doi:10.1016/0022-2836(91)90566-o).

Conditions: Enterobacteria phage fd; pH 7; 25 °C; GdnHCl; CD; MOPS 50 mM; NaCl 100 mM; reversible: yes; whole UniProt chain shown

B1: DNA-Binding protein G5P wild type, P69542 (protein)
chain: MIKVEIKPSQAQFTTRSGVSRQGKPYSLNEQLCYVDLGNEYPVLVKITLDEGQPAYAPGLYTVHLSSFKVGQFGSLMIDRLRLVPAK
In the case of B1, the denaturant m value is reported as 3.6 kcal/mol/M, the “denaturant midpoint (higher = more stable)” value is reported as 2.61 M and the unfolding free energy is reported as 9 kcal/mol.
